Reference: patent US20230406926A1 (Kyowa Kirin, published 2023)
Positions count from the first letter of the chain named.

Experiments:
[1] = target: T1, His-tag-fused human CD3D&E protein (Sino Biological, Inc.) (human, UniProt P07766 23-126; P04234 22-105); assay: SPR (Biacore), His-tagged human CD3D&E captured on anti-tetra His antibody, antibody as analyte, single cycle kinetics
T1 construct: also called soluble CD3; human CD3 protein

CD3 on T cells = target: T2, CD3 on T cells (UniProt P07766 23-207, limits assumed); assay: flow cytometry on T cells by the method of Example 3, fluorescently labeled secondary antibody
T2 construct: whole, on cells; also called CD3 on the surface of the membrane
T2 sequence (P07766 23-207 limits assumed): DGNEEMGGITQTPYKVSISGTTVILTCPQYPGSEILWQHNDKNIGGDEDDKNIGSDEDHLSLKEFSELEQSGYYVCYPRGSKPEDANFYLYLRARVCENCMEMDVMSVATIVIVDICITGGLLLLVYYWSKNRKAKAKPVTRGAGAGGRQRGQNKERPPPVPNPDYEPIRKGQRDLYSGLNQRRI

HER2 = target: T3, HER2 (human, UniProt P04626 23-1255); assay: flow cytometry competition by the method of Example 3 (SK-BR-3 cells): inhibition of the binding of fluorescently labeled Trastuzumab
T3 construct: whole, on cells; also called HER2 on the surface of the cell membrane

[2] = target: cynomolgus monkey CD3 on HSC-F cells (cynomolgus monkey, UniProt Q95LI5 22-198); assay: flow cytometry, hybridoma supernatant on HSC-F cells, Alexa 647 anti-human IgG
cynomolgus monkey CD3 on HSC-F cells, sequence (Q95LI5 22-198): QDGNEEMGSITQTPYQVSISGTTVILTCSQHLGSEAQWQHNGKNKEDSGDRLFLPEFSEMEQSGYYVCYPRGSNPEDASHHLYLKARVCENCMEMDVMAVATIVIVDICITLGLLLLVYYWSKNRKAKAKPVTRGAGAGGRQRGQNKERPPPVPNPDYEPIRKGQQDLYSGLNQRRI

T1 sequence (P07766 23-126, chain 1 of 2): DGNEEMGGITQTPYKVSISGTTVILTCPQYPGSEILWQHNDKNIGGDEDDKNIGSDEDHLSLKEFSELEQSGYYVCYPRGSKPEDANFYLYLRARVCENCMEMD
T1 sequence (P04234 22-105, chain 2 of 2): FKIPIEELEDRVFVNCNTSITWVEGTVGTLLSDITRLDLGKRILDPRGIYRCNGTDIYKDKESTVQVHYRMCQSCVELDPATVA

B1: 4D5mut_scSP34_IgG1 (DF) (bispecific antibody)
chain 1: EVQLVESGGGLVQPKGSLKLSCAASGFTFNTYAMNWVRQAPGKGLEWVARIRSKYNNYATYYADSVKDRFTISRDDSQSILYLQMNNLKTEDTAMYYCVRHGNFGNSYVSWFAYWGQGTLVTVSSGGGGSGGGGSGGGGSQAVVTQESALTTSPGETVTLTCRSSTGAVTTSNYANWVQEKPDHLFTGLIGGTNKRAPGVPARFSGSLIGDKAALTITGAQTEDEAIYFCALWYSNLWVFGGGTKLTVLGTKYGPPCPPCPAPEFEGGPSVFLFPPKPKDTLMISRTPEVTCVVVDVSQEDPEVQFNWYVDGVEVHNAKTKPREEQFNSTYRVVSVLTVLHQDWLNGKEYKCKVSNKGLPSSIEKTISKAKGQPREPQVCTLPPSQEEMTKNQVSLSCAVKGFYPSDIAVEWESNGQPENNYKTTPPVLDSDGSFFLVSKLTVDKSRWQEGNVFSCSVMHEALHNRFTQKSLSLSLGK
chain 2: not shown
chain 3: not shown
With B1 the Kd [1] was 12.6 nM.

B2: 4D5mut_scSP34(H05′)_IgG1 (DF) (bispecific antibody)
chain 1: B1 chain 1 with Y108D, S235E
chain 2: not shown
chain 3: not shown
B2 showed a Kd [1] of 108 nM.

B3: DNP2_IgG1 (DF) (antibody, V domains shown)
VH: QVQLVQSGAEVKKPGASVKVSCKASGYTFTSYGISWVRQAPGQGLEWMGWISAYNGNTNYAQKLQGRVTMTTDTSTSTAYMELRSLRSDDTAVYYCARWDSSSWSFDYWGQGTLVTVSS
VL: DIQMTQSPSSLSASVGDRVTITCRASQGISSWLAWYQQKPEKAPKSLIYAASSLQSGVPSRFSGSGSGTDFTLTISSLQPEDFATYYCQQYNSYPYTFGQGTKLEIKR
notes: also called IgG1-type anti-2,4-dinitrophenyl (DNP) antibody, clone DNP2
B3: no binding (tested: 10 nM) (CD3 on T cells); no binding (HER2).

B4: anti-CD3 monoclonal antibody KM14 (antibody, V domains shown)
VH: QVQLVESGGGVVQPGRSLRLSCEASGFTFSSHGMHWVRQAPGKGLEWVASIWYDGSKKYYADSVKGRFTISRDNSKNTLDLQMNSLRAEDTAVYYCAKTLYYYGSERAHGLDVWGQGTTVTVSS
VL: AIQLTQSPSSLSASVGDRVTITCRASQGISSALAWYQQKPGKAPNLLIYDASSLESGVPSRFSGSGSGTDFTLTISSLQPEDFATYYCQQFNSYPRTFGQGTKVEIK
notes: also called hybridoma clone KM14
B4: binds [2].
